Experimental findings from patent publication US20090156489A1 (Genentech, published 2009) are described below.

The target in assay [1] is chicken Netrin-1 expressed in COS7 cells (chicken, UniProt Q90922 26-606). Briefly: cell surface binding assay on transfected COS7 cells, fluorescence microscopy. The protocol: (§1) The resultant fusion proteins were expressed and used in binding assays over a panel of ˜400 putative cell surface transmembrane or GPI-anchored cell surface human proteins that were transiently expressed in COS7 cells. Purified ECD-Fc fusion proteins (0.5 μg/ml) or the crude baculovirus lysates were added to transiently transfected COS7 cells for 1-2 hours at room temperature. After 3 rinses with cold phosphate buffered saline (PBS), the bound protein was cross-linked to the cell surface with 4% paraformaldehyde. The bound Fc fusion protein was detected by biotinylated anti-human IgGFc and R-phycoerythrin-conjugated streptavidin (Jackson Immunoresearch). Cell surface staining was visualized by fluorescent microscopy and images were taken with the Penguin 800CL digital camera system (Pixera).
(§2) Although the NGL-1 and Netrin-G1 interaction appeared to be specific within the context of the screen, the classical Netrins and their known receptors, DCC and Unc5, were not included in the screen. Thus whether NGL-1 also interacts with Netrin-1 and its receptors was determined. Using the same cell surface binding assay, NGL-1, Netrin-G1, or Netrin-1 were expressed in COS7 cells (rows in FIG. 1a-i) and their ability to bind the IgG Fe fusion protein of NGL-1, Netrin-G1, or DCC (columns in FIG. 1a-i) was determined. […]

Assay [2] concerns the target T1, DCC expressed on COS cells (human, UniProt P43146 26-1447).
T1 construct: whole, on cells
Briefly: cell surface binding assay on transfected COS7 cells, fluorescence microscopy (data not shown). The protocol: as §1, §2

T1 sequence (P43146 26-1447): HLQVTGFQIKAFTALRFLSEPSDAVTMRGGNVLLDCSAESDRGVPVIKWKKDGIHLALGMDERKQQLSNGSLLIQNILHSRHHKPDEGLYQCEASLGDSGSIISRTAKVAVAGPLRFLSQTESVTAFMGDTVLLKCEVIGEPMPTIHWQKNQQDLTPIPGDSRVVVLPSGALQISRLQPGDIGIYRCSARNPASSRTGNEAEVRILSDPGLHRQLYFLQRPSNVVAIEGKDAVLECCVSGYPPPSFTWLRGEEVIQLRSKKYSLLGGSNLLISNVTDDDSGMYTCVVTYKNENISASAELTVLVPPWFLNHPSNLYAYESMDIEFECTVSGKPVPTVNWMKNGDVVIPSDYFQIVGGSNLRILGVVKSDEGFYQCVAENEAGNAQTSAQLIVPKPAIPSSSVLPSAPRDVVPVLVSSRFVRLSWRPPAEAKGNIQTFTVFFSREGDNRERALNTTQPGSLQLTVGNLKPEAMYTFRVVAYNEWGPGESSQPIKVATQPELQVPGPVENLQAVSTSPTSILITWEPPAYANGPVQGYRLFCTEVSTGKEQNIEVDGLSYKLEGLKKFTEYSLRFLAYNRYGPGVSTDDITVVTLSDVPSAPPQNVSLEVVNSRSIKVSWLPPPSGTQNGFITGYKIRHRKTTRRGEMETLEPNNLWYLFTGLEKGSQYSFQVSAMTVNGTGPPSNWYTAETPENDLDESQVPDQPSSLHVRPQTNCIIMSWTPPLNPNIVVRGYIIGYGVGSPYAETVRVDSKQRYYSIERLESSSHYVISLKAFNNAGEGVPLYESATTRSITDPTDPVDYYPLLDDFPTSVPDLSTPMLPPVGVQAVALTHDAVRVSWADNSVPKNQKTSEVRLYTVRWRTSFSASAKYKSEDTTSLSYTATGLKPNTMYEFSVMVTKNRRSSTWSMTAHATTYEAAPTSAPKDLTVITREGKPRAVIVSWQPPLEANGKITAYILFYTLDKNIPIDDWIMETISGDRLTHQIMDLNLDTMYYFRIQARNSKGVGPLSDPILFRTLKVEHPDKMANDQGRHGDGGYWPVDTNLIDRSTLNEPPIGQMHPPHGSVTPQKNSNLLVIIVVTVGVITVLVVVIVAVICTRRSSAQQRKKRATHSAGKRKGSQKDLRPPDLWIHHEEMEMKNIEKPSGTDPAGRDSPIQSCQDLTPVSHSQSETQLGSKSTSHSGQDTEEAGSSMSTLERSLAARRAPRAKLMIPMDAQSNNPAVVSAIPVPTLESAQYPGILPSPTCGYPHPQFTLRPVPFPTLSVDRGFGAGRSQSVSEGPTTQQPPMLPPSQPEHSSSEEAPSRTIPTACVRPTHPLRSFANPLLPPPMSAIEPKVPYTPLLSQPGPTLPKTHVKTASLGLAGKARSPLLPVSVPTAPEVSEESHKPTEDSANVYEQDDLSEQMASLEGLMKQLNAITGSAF

B1: human Netrin-G1-Fc (Fc fusion, UniProt Q9Y2I2-1 29-409, looked up)
chain: HYDLCKTQIYTEEGKVWDYMACQPESTDMTKYLKVKLDPPDITCGDPPETFCAMGNPYMCNNECDASTPELAHPPELMFDFEGRHPSTFWQSATWKEYPKPLQVNITLSWSKTIELTDNIVITFESGRPDQMILEKSLDYGRTWQPYQYYATDCLDAFHMDPKSVKDLSQHTVLEIICTEEYSTGYTTNSKIIHFEIKDRFAFFAGPRLRNMASLYGQLDTTKKLRDFFTVTDLRIRLLRPAVGEIFVDELHLARYFYAISDIKVRGRCKCNLHATVCVYDNSKLTCECEHNTTGPDCGKCKKNYQGRPWSPGSYLPIPKGTANTCIPSISSIGTNVCDNELLHCQNGGTCHNNVRCLCPAAYTGILCEKLRCEEAGSCGS
notes: extracellular domain; also called Netrin-G1-Fc fusion protein; not shown: human IgG1 Fc region
With B1, the binding result in assay [1] and in assay [2] was “no binding” in each case.
